From patent publication US20230374526A1, “FORSKOLIN-INDUCIBLE PROMOTERS AND HYPOXIA-INDUCIBLE PROMOTERS” (ASKLEPIOS BIOPHARMACEUTICAL, INC., priority 2020, published 2023)

Legend:
HEK-293 cells = assay: Optimum inducer concentration to induce expression; type: cell-based, human
Pro10 cells = assay: Rep78 expression via western blot under second generation forskolin-inducible promoters; type: cell-based; conditions: for Rep78 expression in the presence of forskolin: 10 μM forskolin, 24 hrs; for Rep78 expression in the presence of forskolin / Rep78 expression in the absence of forskolin: western blot; for Rep78 expression in the absence of forskolin: DMSO control
Method: HEK293-T (ATCC-CRL-3216) cell lines were maintained in DMEM plus 10% FBS as described for HEK293 cells. Plasmids to be transfected were linearised and transfected using Lipofectamine 2000 (Invitrogen, 11668027) as per the manufacturer's instructions. The cells were then cultured for 48 hrs in non-selective medium before being switched to selective medium (standard medium plus Blasticidin 5 ug/ml (Thermofisher, A1113902).
Each of the promoters were tested for their ability to induce expression of the Rep78 protein. To eliminate the expression of Rep52, we have mutated the ATG start codon in Rep52 to an AGG. All constructs were synthesized by Genewiz. Pro10 cells were cultured and transfected using lipofectamine 2000 as previously described. 24 hrs after transfection 10 μM forskolin was added to the cells. Control wells were given DMSO as forskolin was dissolved in this carrier. After another 24 hrs the cells were then lysed and lysates were analysed for Rep78 expression via western blot.
Cells are collected in Eppendorf tubes and centrifuged at 300 g for 5 mins in a tabletop centrifuge. Supernatants are discarded and cell pellets are lysed in 1× radioimmunoprecipitation assay (RIPA) buffer, which is made up of RIPA Lysis & Extraction Buffer (Thermofisher, UK, 89900), 100×Halt Protease Inhibitor (Thermofisher, UK, 78445). After addition of the cell lysis buffer all samples are constantly kept on ice. The samples are vortexed and either stored at −20° C. overnight or kept on ice for 30 mins prior to centrifugation at full speed (21,130 g) in the tabletop centrifuge for 20 mins at 4° C. for the removal of any insoluble material. Cell lysates are mixed with 4×LDS loading sample buffer and 10× sample reducing agent (ThermoFisher, UK, NP0007 and NP0004); they are briefly spun down, heated to 95° C. for 10 mins, allowed to cool to 10° C., briefly spun down again and then separated on polyacrylamide gels (NuPAGE Novex 4-12% Bis-Tris Gels, 1.0 mm; ThermoFisher UK, NP0324BOX), which are allowed to reach room temperature before use. The PageRuler™ Prestained NIR Protein Ladder (ThermoFisher, UK, 26635) is run alongside the cell lysates for size comparison purposes. Gels are run at 150V for 1 hour 15 mins using ThermoFisher's XCell SureLock Mini-Cell system. Gels are then transferred to nitrocellulose membranes using the iBlot 2 Dry Blotting System, p0 programme, (ThermoFisher, UK) according to the manufacturer's instructions. Initially, a total protein stain is performed following the manufacturer's instructions (Revert™ 700 Total Protein Stain for Western Blot Normalization; Licor, UK, 926-11011), and this is followed by immunoblotting of the membranes. The membranes are specifically transferred to falcon tubes where they are first blocked with the Licor Odyssey® blocking buffer at room temperature for 1 hour, followed by probing with suitable primary antibodies resuspended in the Licor Odyssey® blocking buffer in a cold room set at 4° C. overnight. The following day membranes are washed 3× in PBS-T (0.05%) for 5 mins each time and then probed with a suitable secondary antibody for 1.5 hours at room temperature. Secondary antibodies typically contain a fluorescent tag for visualisation purposes. Membranes are washed once again 2× in PBS-T (0.05%) for 5 mins each time followed by a final wash in 1×PBS for 5 mins. The membranes are imaged using an Odyssey® Fc Licor imaging system.
The antibodies used in this experiment were: primary antibody: anti-Rep antibody 303.9 clone (Progen, 61069) and Secondary antibody: LICOR anti-mouse 800 nm (LICOR, 926-32210).
We also tested the ability of the AAV helper functions to induce the activity of the best performing promoter FORN-pJB42. Transfections were carried out as previously described. Conditions are as follows, FORN-pJB42 controlling expression of Rep78 was transfected with and without the adenovirus helper functions. […]

Molecule | Concentration determined to be optimum to induce expression (HEK-293 cells) | Rep78 expression in the presence of forskolin (Pro10 cells) | Rep78 expression in the absence of forskolin (Pro10 cells) | Promoter activity (Rep78) in the presence of helper functions, absence of forskolin (Pro10 cells; adenovirus helper functions (pHelper), DMSO) | Promoter activity (Rep78) in the presence of helper functions and forskolin (Pro10 cells; adenovirus helper functions and 10 μM forskolin)
C=C[C@@]1(C)CC(=O)[C@]2(O)[C@@]3(C)[C@@H](O)CCC(C)(C)[C@@H]3[C@H](O)[C@H](OC(C)=O)[C@@]2(C)O1 [Forskolin] | about 18 μM | – | – | – | –
FORN-pJB42: synthetic forskolin-inducible promoter, SEQ ID NO: 73; 7×cAMPRE and 6×AP1(3) with pJB42 minimal promoter (nucleic acid, Synp-FORNpJB42, 7×cAMPRE and 6×AP1(3) with pJB42 minimal promoter) DNA: AATAAAATATCTTTATTTTCATTACATCTGTGTGTTGGTTTTTTGTGTGCCATTGACGTCACGATTTGACGTCAACCATTGACGTCACGATTTGACGTCAACCATTGACGTCACGATTTGACGTCACGATTTGACGTCAACCATTGACTCACGATTTGACTCAACCATTGACTCACGATTTGACTCAACCATTGACTCACGATTTGACTCACGATTCTGACAAATTCAGTATAAAAGCTTGGGGCTGGGGCCGAGCACTGGGGACTTTGAGGGTGGCCAGGCCAGCGTAGGAGGCCAGCGTAGGATCCTGCTGGGAGCGGGGAACTGAGGGAAGCGACGCCGAGAAAGCAGGCGTACCACGGAGGGAGAGAAAAGCTCCGGAAGCCCAGCAGCGGCCACC | – | strong expression | no Rep78 expression | activated | full activity
Synp-FORNEW: synthetic forskolin-inducible promoter, SEQ ID NO: 62; 7×cAMPRE and 6×AP1(3) with YB-TATA minimal promoter (nucleic acid, Synp-FORNEW, 7×cAMPRE and 6×AP1(3) with YB-TATA minimal promoter) DNA: AATAAAATATCTTTATTTTCATTACATCTGTGTGTTGGTTTTTTGTGTGCCATTGACGTCACGATTTGACGTCAACCATTGACGTCACGATTTGACGTCAACCATTGACGTCACGATTTGACGTCACGATTTGACGTCAACCATTGACTCACGATTTGACTCAACCATTGACTCACGATTTGACTCAACCATTGACTCACGATTTGACTCACGATTGCGATTAATCCATATGCTCTAGAGGGTATATAATGGGGGCCACTAGTCTACTACCAGAAAGCTTGGTACCGAGCTCGGATCCAGCCACC | – | strong expression | no Rep78 expression | – | –
Synp-FORNTATAm6a: synthetic forskolin-inducible promoter, SEQ ID NO: 74; 7×cAMPRE and 6×AP1(3) with TATA-m6A minimal promoter (nucleic acid, Synp-FORNTATAm6a, 7×cAMPRE and 6×AP1(3) with TATA-m6A minimal promoter) DNA: AATAAAATATCTTTATTTTCATTACATCTGTGTGTTGGTTTTTTGTGTGCCATTGACGTCACGATTTGACGTCAACCATTGACGTCACGATTTGACGTCAACCATTGACGTCACGATTTGACGTCACGATTTGACGTCAACCATTGACTCACGATTTGACTCAACCATTGACTCACGATTTGACTCAACCATTGACTCACGATTTGACTCACGATTTATAAAAGGCAGAGCTCGTTTAGTGAACCGAAGCTTGGACTAAAGCGGACTTGTCTCGAG | – | strong expression | no Rep78 expression | – | –
